Patent US20190248864A1

Columns and labels:
[1] = target: each construct (cells transfected with either wild type or the PCSK9 binding-deficient LDLR mRNAs); experiment: flow cytometry, half-maximal cell association of BODIPY-LDL on transfected HEK293 cells
[2] = target: mouse LDLR mutant 1 (LDLR_N317A, K832R, C841A) (mouse) (UniProt P35951); experiment: cell-based or functional assay
[3] = target: wild type mouse LDLR (mouse) (UniProt P35951); experiment: cell-based or functional assay

| EC50 [1] | Average LDLR MCF, HeLa cells, co-transfected with IDOL (with Luciferase: 8369) [2] | Average LDLR MCF, Hepa1-6, co-transfected with IDOL (with Luciferase: 14080) [2] | LDLR expression as percent of the baseline, HeLa cells (% of the baseline) [2] | LDLR expression as percent of the baseline, Hepa1-6 (% of the baseline) [2] | Average LDLR MCF, HeLa cells, co-transfected with IDOL (with Luciferase: 5773) [3] | Average LDLR MCF, Hepa1-6, co-transfected with IDOL (with Luciferase: 5272) [3] | LDLR expression as percent of the baseline, HeLa cells (% of the baseline) [3] | LDLR expression as percent of the baseline, Hepa1-6 (% of the baseline) [3] | LDLR expression as percent of the baseline, Hepa1-6 cells given no LDLR mRNA (luciferase row of Table 15) (% of the baseline) [3] | Molecule |
| --- | --- | --- | --- | --- | --- | --- | --- | --- | --- | --- |
| 0.6 to 0.7 ng/mL |  |  |  |  |  |  |  |  |  | BODIPY-labeled LDL (low density lipoprotein) (from UniProt P04114 28-4563) (ligand) |
|  | 7050 MCF | 8860 MCF | 84.2 | 62.9 | 2920 MCF | 881 MCF | 50.5 | 16.7 | 62.3 | mouse IDOL (inducible degrader of the LDLR) (enzyme, UniProt Q8BM54 1-445, looked up) MLCYVTRPDAVLMEVEVEAKANGEDCLNQVCRRLGIIEVDYFGLQFTGSKGESLWLNLRNRISQQMDGLAPYRLKLRVKFFVEPHLILQEQTRHIFFLHIKESLLAGHLQCSPEQAVELSALLAQTKFGDYNQNTAQYSYEDLCEKELSSSTLNSIVAKHKELEGISQASAEYQVLQIVSAMENYGIEWHAVRDSEGQKLLIGVGPEGISICKEDFSPINRIAYPVVQMATQSGKNVYLTVTKESGNSIVLLFKMISTRAASGLYRAITETHAFYRCDTVTSAVMMQYSRDLKGHLASLFLNENINLGKKYVFDIKRTSKEVYDHARRALYNAGVVDLVSRSDQSPPSSPLKSSDSSMSCSSCEGLSCQQTRVLQEKLRKLKEAMLCMACCEEEINSTFCPCGHTVCCESCAAQLQSCPVCRSRVEHVQHVYLPTHTSLLNLTVI |
